Experimental data reported in publication PMC3480639.

How the values were obtained:
[1] = biological target: H2B:mRFP (UniProt P06899); experiment: FRET or BRET; FLIM-FRET in cells in interphase; GFP fusion as donor, mRFP or dsRed fusion as acceptor; multiphoton excitation at 890 nm; at least 20 cells per condition
[2] = biological target: Importin β (endogenous, DT40); experiment: TrAP-tag pull-down and mass spectrometry; details: DT40 cells blocked in mitosis with colcemid, then forced to exit from mitosis by addition of roscovitine; parent: 15
[3] = biological target: NUP153 (endogenous, DT40); experiment: TrAP-tag pull-down and mass spectrometry; details: DT40 cells blocked in mitosis with colcemid, then forced to exit from mitosis by addition of roscovitine; parent: 8
[4] = biological target: NUP50 (endogenous, DT40); experiment: TrAP-tag pull-down and mass spectrometry; details: DT40 cells blocked in mitosis with colcemid, then forced to exit from mitosis by addition of roscovitine; parent: 17
[5] = biological target: PP1; experiment: TrAP-tag pull-down and mass spectrometry; details: DT40 cells blocked in mitosis with colcemid, then forced to exit from mitosis by addition of roscovitine; parent: 18
[6] = biological target: histone H2B; experiment: TrAP-tag pull-down and mass spectrometry; details: DT40 cells blocked in mitosis with colcemid, then forced to exit from mitosis by addition of roscovitine; parent: 12
[7] = biological target: histone H3; experiment: TrAP-tag pull-down and mass spectrometry; details: DT40 cells blocked in mitosis with colcemid, then forced to exit from mitosis by addition of roscovitine; parent: 17

Row | E FRET [1] | other: number of peptides identified by mass spectrometry [2] | other: number of peptides identified by mass spectrometry [3] | other: number of peptides identified by mass spectrometry [4] | other: number of peptides identified by mass spectrometry [5] | other: number of peptides identified by mass spectrometry [6] | other: number of peptides identified by mass spectrometry [7] | Substance
1 | 22% |  |  |  |  |  |  | GFP:Repo-Man (from UniProt Q69YH5 1-1023) (natural protein)
2 |  | 35 | 34 | 17 | -0 | 14 | 12 | TrAP:hRepo-Man^WT (from UniProt Q69YH5) RVTF>RAXA (V>A; F>A in the RVTF motif, residue numbers not printed)
